From publication doi:10.1101/2023.12.15.571945 come the findings set out here.

In this assay the target is GFP-Rab13-2 (N. benthamiana). Kind of assay: co-IP.

With “REP-3xFLAG (Rab escort protein 1) (natural protein)”, the level of binding (α-FLAG/α-GFP) with RFP-Pc12 expressed worked out at 1.3.
